In patent US7754689B2, “Finger-1 peptide analogs of the TGF-β superfamily” (Wyeth LLC, priority 2006, dated 2010):
Values joined by “and” are separate entries in the source; they are usually repeats but may differ in a detail not shown here. Equal entries are not always repeated.

Columns and labels:
[1] = BMP solubility screen: A320 turbidity of BMP-12 solutions; type: physicochemical; details: 50 mM Tris pH 8, 0.5 mg/mL BMP-12
Protocol: BMP Solubility Screen—A Tecan liquid-handling robot was used to mix a master plate of reagents, 800 μL×1.25 concentration (for each solution; see Tables 2 and 3), each in 50 mM Tris buffer at pH 8. An eight-channel pipettor was used to transfer 80 μL of material from the master plate into a half-area UV microplate, from which A320 was read from each sample to define a blank. A repeat-pipettor was used to add 20 μL of 2.5 mg/mL BMP-12 in 0.1% TFA to make a 0.5 mg/mL solution, which was then agitated at 14000 rpm. The UV absorption (A320) was read and the blank absorption subtracted to determine solubility. The procedure was repeated with a wider range of 2-methyl-2,4-pentanediol (MPD) concentrations and a finer set of salt concentrations (Table 4).

BMP-3 = target: T1, BMP-3 (Homo sapiens, UniProt P12645); test: Affinity column chromatography, capture and elution of BMP-3; type: binding
T1 construct: a propeptide fragment copurifies along with the mature protein; made in house; host or cells: CHO cells (conditioned medium)
T1 sequence (P12645 363-472): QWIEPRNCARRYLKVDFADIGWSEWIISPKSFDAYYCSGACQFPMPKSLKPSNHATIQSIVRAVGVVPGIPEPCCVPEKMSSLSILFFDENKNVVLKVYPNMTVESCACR
Protocol: BMP-12 was immobilized on NHS-activated Sepharose™ beads at a ratio of about 20 mg:4 mL and the resulting media combined with water or neutral saline buffer to prepare a column. CHO-conditioned media augmented with 1.2 M NaCl was loaded onto the column. In some cases, the media was preconcentrated with respect to BMP before loading. The column was washed with 15 CV (column volumes) of 1.2 M NaCl in 40 mM Na2HPO4 at pH 7.2, followed by 0.5 M arginine/0.5 M NaCl in 20 mM Tris at pH 7.5 (15 CV) and a low salt wash (50 mM ammonium acetate at pH 7, 15 CV). […] Finally, the column was eluted with 5CV of the acetic acid solution with 6M guanidine hydrochloride (GuHCl).
The eluate was analyzed using HPLC.
4 mL of the resulting resin (1.6×2.0 cm) was used to prepare a column. The column was loaded with BMP-3 and eluted as in Example 1.

B1: BMP-12: Bone Morphogenic Protein, member of the TGF-β superfamily; tested in solution and immobilized on Sepharose beads as affinity ligand (protein)
chain: TALAGTRTAQGSGGGAGRGHGRRGRSRCSRKPLHVDFKELGWDDWIIAPLDYEAYHCEGLCDFPLRSHLEPTNHAIIQTLLNSMAPDAAPASCCVPARLSPISILYIDAANNVVYKQYEDMVVEACGCR
A320 minus blank (turbidity) ([1]; NaCl 0.5 M, 2-methyl-2,4-pentanediol 5%): 2.414 | A320 minus blank (turbidity) ([1]; NaCl 0.5 M, 2-methyl-2,4-pentanediol 10%): 2.258 | A320 minus blank (turbidity) ([1]; NaCl 0.5 M, 2-methyl-2,4-pentanediol 15%): 1.420 | A320 minus blank (turbidity) ([1]; NaCl 0.5 M, 2-methyl-2,4-pentanediol 20%): 0.165 | A320 minus blank (turbidity) ([1]; NaCl 0.5 M, 2-methyl-2,4-pentanediol 25%): 0.020 and 0.038 | A320 minus blank (turbidity) ([1]; NaCl 0.50 M, 2-methyl-2,4-pentanediol 30%): −0.091 | A320 minus blank (turbidity) ([1]; NaCl 0.50 M, 2-methyl-2,4-pentanediol 35%): 0.026 | A320 minus blank (turbidity) ([1]; NaCl 0.50 M, 2-methyl-2,4-pentanediol 40%): 0.024 | A320 minus blank (turbidity) ([1]; NaCl 0.50 M, 2-methyl-2,4-pentanediol 45%): −0.008 | A320 minus blank (turbidity) ([1]; NaCl 0.75 M, 1-propanol 0%): 1.911 | A320 minus blank (turbidity) ([1]; NaCl 0.75 M, 1-propanol 2.5%): 2.023 | A320 minus blank (turbidity) ([1]; NaCl 0.75 M, 1-propanol 5%): 1.541 | A320 minus blank (turbidity) ([1]; NaCl 0.75 M, 1-propanol 10%): 1.032 | A320 minus blank (turbidity) ([1]; NaCl 0.75 M, 1-propanol 15%): 0.094 | A320 minus blank (turbidity) ([1]; NaCl 0.75 M, 1-propanol 25%): −0.003 | A320 minus blank (turbidity) ([1]; NaCl 0.75 M, 2-methyl-2,4-pentanediol 2.5%): 1.985 | A320 minus blank (turbidity) ([1]; NaCl 0.75 M, 2-methyl-2,4-pentanediol 5%): 2.076 | A320 minus blank (turbidity) ([1]; NaCl 0.75 M, 2-methyl-2,4-pentanediol 10%): 2.211 | A320 minus blank (turbidity) ([1]; NaCl 0.75 M, 2-methyl-2,4-pentanediol 15%): 0.818 | A320 minus blank (turbidity) ([1]; NaCl 0.75 M, 2-methyl-2,4-pentanediol 20%): 0.099 | A320 minus blank (turbidity) ([1]; NaCl 0.75 M, 2-methyl-2,4-pentanediol 25%): 0.001 | A320 minus blank (turbidity) ([1]; NaCl 1 M, 1-propanol 0%): 1.988 | A320 minus blank (turbidity) ([1]; NaCl 1 M, 1-propanol 2.5%): 1.601 | A320 minus blank (turbidity) ([1]; NaCl 1 M, 1-propanol 5%): 1.817 | A320 minus blank (turbidity) ([1]; NaCl 1 M, 1-propanol 10%): 1.000 | A320 minus blank (turbidity) ([1]; NaCl 1 M, 1-propanol 15%): 0.040 | A320 minus blank (turbidity) ([1]; NaCl 1 M, 1-propanol 25%): −0.010 | A320 minus blank (turbidity) ([1]; NaCl 1 M, 2-methyl-2,4-pentanediol 2.5%): 2.133 | A320 minus blank (turbidity) ([1]; NaCl 1 M, 2-methyl-2,4-pentanediol 5%): 1.903 | A320 minus blank (turbidity) ([1]; NaCl 1 M, 2-methyl-2,4-pentanediol 10%): 2.110 | A320 minus blank (turbidity) ([1]; NaCl 1 M, 2-methyl-2,4-pentanediol 15%): 0.400 | A320 minus blank (turbidity) ([1]; NaCl 1 M, 2-methyl-2,4-pentanediol 20%): 0.089 | A320 minus blank (turbidity) ([1]; NaCl 1 M, 2-methyl-2,4-pentanediol 25%): −0.015 | A320 minus blank (turbidity) ([1]; NaCl 1.25 M, 1-propanol 0%): 1.702 | A320 minus blank (turbidity) ([1]; NaCl 1.25 M, 1-propanol 2.5%): 1.376 | A320 minus blank (turbidity) ([1]; NaCl 1.25 M, 1-propanol 5%): 1.643 | A320 minus blank (turbidity) ([1]; NaCl 1.25 M, 1-propanol 10%): 1.018 | A320 minus blank (turbidity) ([1]; NaCl 1.25 M, 1-propanol 15%): 0.033 | A320 minus blank (turbidity) ([1]; NaCl 1.25 M, 1-propanol 25%): 0.022 | A320 minus blank (turbidity) ([1]; NaCl 1.25 M, 2-methyl-2,4-pentanediol 2.5%): 1.819 | A320 minus blank (turbidity) ([1]; NaCl 1.25 M, 2-methyl-2,4-pentanediol 5%): 1.643 | A320 minus blank (turbidity) ([1]; NaCl 1.25 M, 2-methyl-2,4-pentanediol 10%): 1.688 | A320 minus blank (turbidity) ([1]; NaCl 1.25 M, 2-methyl-2,4-pentanediol 15%): 0.257 | A320 minus blank (turbidity) ([1]; NaCl 1.25 M, 2-methyl-2,4-pentanediol 20%): 0.040 | A320 minus blank (turbidity) ([1]; NaCl 1.25 M, 2-methyl-2,4-pentanediol 25%): −0.011 | A320 minus blank (turbidity) ([1]; NaCl 1.5 M, 1-propanol 0%): 1.981 | A320 minus blank (turbidity) ([1]; NaCl 1.5 M, 1-propanol 2.5%): 1.358 | A320 minus blank (turbidity) ([1]; NaCl 1.5 M, 1-propanol 5%): 1.598 | A320 minus blank (turbidity) ([1]; NaCl 1.5 M, 1-propanol 10%): 0.973 | A320 minus blank (turbidity) ([1]; NaCl 1.5 M, 1-propanol 15%): 0.036 | A320 minus blank (turbidity) ([1]; NaCl 1.5 M, 1-propanol 25%): 0.478 | A320 minus blank (turbidity) ([1]; NaCl 1.5 M, 2-methyl-2,4-pentanediol 2.5%): 1.767 | A320 minus blank (turbidity) ([1]; NaCl 1.5 M, 2-methyl-2,4-pentanediol 5%): 1.521 | A320 minus blank (turbidity) ([1]; NaCl 1.5 M, 2-methyl-2,4-pentanediol 10%): 1.798 | A320 minus blank (turbidity) ([1]; NaCl 1.5 M, 2-methyl-2,4-pentanediol 15%): 0.227 | A320 minus blank (turbidity) ([1]; NaCl 1.5 M, 2-methyl-2,4-pentanediol 20%): 0.045 | A320 minus blank (turbidity) ([1]; NaCl 1.5 M, 2-methyl-2,4-pentanediol 25%): 0.003 | capture of BMP-3 by column with immobilized ligand (BMP-3; CHO-conditioned media with 1.2 M NaCl (high salt) load): effectively captured | elution of BMP-3 from column with immobilized ligand (BMP-3; washes, then gradient to 50 mM acetic acid pH 3, then 6M GuHCl): eluted with acetic acid
